The values that follow are results of earlier work, collected in paper PMC6389997.

Holding throughout (details): cited from earlier work
The target in data set [1] is sigma32 (Escherichia coli) (UniProt P0AGB3).
The target in data set [2] is Im7 (folded) (Escherichia coli) (UniProt Q03708).
For data set [3], the target named is Im7 (intermediate-like) (Escherichia coli) (UniProt Q03708).
The target in data set [4] is Im7 (unfolded-like) (Escherichia coli) (UniProt Q03708).
Chain of Im7 (unfolded-like) (Escherichia coli) (Q03708 whole entry): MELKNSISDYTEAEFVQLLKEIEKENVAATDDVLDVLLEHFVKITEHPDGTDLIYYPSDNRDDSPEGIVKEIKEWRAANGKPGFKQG

Chain of Spy (P77754 24-161): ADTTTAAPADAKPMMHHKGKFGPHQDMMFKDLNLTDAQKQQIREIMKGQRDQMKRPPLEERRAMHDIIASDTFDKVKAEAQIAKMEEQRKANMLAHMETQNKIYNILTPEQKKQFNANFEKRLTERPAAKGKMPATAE
Chain of Im7 (intermediate-like) (Escherichia coli) (Q03708 whole entry): as the sequence (Q03708 whole entry) above
Chain of Im7 (folded) (Escherichia coli) (Q03708 whole entry): as above
Chain of DnaK (P0A6Y8 2-638): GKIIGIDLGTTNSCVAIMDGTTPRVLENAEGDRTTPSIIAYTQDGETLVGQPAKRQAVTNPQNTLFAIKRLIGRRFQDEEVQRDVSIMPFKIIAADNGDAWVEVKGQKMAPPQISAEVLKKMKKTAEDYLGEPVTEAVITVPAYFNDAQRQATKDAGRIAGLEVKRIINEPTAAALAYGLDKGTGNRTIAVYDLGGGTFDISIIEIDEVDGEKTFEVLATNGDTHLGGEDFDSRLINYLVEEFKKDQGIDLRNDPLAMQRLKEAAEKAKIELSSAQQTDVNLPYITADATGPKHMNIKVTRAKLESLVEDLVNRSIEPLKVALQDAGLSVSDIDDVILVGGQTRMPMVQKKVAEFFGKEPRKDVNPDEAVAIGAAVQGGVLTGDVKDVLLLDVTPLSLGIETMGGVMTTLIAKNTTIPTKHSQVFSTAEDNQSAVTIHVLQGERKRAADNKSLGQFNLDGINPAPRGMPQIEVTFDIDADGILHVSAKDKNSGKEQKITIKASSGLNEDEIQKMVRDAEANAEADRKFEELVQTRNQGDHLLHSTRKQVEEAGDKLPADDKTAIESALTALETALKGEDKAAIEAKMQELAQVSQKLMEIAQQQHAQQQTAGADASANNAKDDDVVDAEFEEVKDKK
Chain of sigma32 (Escherichia coli) (P0AGB3 whole entry): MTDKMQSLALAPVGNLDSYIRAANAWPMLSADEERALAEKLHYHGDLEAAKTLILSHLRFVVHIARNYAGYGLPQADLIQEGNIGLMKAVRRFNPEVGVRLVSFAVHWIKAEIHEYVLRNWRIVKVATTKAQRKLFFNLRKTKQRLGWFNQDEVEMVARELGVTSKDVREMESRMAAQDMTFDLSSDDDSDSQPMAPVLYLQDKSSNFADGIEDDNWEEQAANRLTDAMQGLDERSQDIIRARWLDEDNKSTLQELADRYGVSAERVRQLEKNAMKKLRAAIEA

Turning to DnaK (from UniProt P0A6Y8), the dissociation constant Kd (as a rule, the concentration at which binding is half-saturated) in data set [1] is 1.4 µM.

Turning to Spy (from UniProt P77754), the Kd in data set [2] is 20.5 µM; in data set [3], 3.5 µM; in data set [4], 10.4 µM.
